Consider 3 molecules from patent US20220213176A1 (SHANGHAITECH UNIVERSITY, published 2022).

For assay [1], the target named is T1, HCoV-HKU1 spike (HCoV-HKU1, UniProt Q5MQD0 13-1356).
T1 construct: whole, on cells
T1 sequence: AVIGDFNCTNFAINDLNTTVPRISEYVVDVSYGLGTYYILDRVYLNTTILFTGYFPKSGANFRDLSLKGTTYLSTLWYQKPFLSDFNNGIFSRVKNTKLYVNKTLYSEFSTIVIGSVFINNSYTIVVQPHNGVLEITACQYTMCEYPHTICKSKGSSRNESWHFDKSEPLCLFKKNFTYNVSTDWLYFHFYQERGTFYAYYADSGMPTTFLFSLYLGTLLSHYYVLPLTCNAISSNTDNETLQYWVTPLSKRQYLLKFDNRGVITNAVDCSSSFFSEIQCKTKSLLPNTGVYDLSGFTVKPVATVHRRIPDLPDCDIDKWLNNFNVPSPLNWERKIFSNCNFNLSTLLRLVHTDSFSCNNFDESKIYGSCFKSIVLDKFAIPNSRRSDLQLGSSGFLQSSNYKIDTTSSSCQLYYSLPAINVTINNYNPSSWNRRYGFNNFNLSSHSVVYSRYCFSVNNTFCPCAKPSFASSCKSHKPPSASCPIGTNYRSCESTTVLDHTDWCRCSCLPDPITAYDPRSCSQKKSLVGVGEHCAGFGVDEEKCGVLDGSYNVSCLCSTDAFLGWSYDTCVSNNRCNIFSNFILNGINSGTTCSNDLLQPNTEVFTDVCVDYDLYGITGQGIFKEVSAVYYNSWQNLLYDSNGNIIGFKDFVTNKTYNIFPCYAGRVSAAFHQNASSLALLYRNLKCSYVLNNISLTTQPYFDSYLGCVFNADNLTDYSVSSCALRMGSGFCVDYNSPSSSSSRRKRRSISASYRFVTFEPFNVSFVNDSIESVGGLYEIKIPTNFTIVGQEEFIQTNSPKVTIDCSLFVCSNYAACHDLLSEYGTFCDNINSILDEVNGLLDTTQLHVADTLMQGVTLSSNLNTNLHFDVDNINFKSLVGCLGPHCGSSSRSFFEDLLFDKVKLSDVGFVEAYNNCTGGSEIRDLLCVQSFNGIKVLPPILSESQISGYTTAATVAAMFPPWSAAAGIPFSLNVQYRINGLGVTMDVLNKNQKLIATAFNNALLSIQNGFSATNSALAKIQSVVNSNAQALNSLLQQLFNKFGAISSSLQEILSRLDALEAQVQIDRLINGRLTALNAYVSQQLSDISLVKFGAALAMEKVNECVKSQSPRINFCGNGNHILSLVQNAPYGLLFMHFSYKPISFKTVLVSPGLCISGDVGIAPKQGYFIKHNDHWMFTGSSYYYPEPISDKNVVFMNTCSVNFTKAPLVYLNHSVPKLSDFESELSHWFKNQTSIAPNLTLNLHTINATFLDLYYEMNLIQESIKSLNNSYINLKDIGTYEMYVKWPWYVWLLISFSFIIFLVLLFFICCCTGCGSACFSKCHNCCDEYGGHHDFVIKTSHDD
The experiment in a line: FACS, transfected HEK293T cells, IgG4 antibody. Background: A flow cytometer gives signals particle by particle.

The target in assay [2] is T2, HCoV-229E spike (HCoV-229E, UniProt P15423 16-1173).
T2 construct: whole, on cells
T2 sequence: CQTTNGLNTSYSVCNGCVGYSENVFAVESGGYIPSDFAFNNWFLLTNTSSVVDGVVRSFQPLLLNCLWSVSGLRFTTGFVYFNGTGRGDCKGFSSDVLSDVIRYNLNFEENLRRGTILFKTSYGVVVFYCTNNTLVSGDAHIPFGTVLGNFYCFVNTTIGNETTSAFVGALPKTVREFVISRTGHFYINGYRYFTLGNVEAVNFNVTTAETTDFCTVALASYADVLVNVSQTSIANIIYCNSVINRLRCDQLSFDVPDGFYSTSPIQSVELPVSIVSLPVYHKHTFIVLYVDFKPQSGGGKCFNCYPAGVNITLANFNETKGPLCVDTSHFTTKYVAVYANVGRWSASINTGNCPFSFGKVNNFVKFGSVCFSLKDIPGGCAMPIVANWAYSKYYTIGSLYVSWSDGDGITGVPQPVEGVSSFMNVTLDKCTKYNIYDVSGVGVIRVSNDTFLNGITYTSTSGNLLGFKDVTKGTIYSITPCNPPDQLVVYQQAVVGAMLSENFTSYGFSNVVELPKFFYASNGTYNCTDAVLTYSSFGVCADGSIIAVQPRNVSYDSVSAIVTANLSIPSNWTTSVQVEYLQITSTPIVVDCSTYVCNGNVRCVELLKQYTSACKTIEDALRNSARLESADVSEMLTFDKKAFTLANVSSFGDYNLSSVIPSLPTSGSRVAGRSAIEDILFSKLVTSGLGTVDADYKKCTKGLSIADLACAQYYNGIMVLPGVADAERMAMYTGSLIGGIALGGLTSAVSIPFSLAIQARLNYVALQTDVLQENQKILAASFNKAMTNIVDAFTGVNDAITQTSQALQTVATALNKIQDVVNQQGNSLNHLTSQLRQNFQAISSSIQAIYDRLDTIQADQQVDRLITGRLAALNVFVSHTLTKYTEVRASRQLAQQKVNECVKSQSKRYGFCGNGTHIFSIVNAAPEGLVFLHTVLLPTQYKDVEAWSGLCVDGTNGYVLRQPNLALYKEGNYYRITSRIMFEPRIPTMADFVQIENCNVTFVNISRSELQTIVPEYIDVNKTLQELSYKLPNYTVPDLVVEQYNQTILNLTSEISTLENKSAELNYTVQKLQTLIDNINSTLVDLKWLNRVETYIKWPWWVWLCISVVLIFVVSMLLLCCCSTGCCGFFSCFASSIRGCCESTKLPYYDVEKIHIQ
The experiment in a line: FACS, transfected HEK293T cells, IgG4 antibody.

B1: S-B8 (antibody, V domains shown)
VH: QVQLVQSGGGLIQPGGSLRLSCAASGFTVSLSHMNWVRQAPGKGLEWVSITYGDGNSDYADSVKGRFTISRDNSKNTLYLQMNSLRAEDTAVYYCAREYYYGMDVWGQGTTVTVSS
VL: not shown
notes: also called S-B8 dimer
As to B1, the binding result in assay [1] and in assay [2] was “no binding” each time.

B2: S-D4 (antibody, V domains shown)
VH: QVQLQESGGGVVQPGRSLRLSCEVSGFTFSDYGMHWVRQAPGKGLEWVAVIWSEGSTEYYADSVKGRFTISRDNSKDTLYLQMNSLRAEDTAVYYCARPGYPTSTDRSPAAAGARQYYYYGMDVWGQGTTVTVSS
VL: NFMLTQPHSVSESPGKTVTISCTRSGGSGAANYVQWYQQRPGSSPTTLIYEDSRRPPGVPDRFSGSVDTSSNSASLTISGLQTEDEADYYCQSYDSSNHVVFGGGTKLTVLG
notes: also called S-D4 dimer; S-D4 IgG4
With B2, the binding result in assay [1] and in assay [2] was “no binding” each time.

B3: S-E6 (antibody, V domains shown)
VH: QVTLRESGPGLVKPSETLSLTCAVSGGSLSSVNYYWSWIRQHPGKGLEWIGYIYYSGSTNYNPSLKSRVTMSLDTSKNQFSLKLSSVTAADTAVYYCATPGAIMGALHIWGQGTLVTVSS
VL: QAVLTQPSSASSTPGQRVIISCSGSSSNIGSNTVSWYQQVPGAAPKLLIYFDYRRPSGVPDRFSGTRSGTSASLGISGLQSEDEADYYCAAWDDSLSAWVFGRGTKLTVLG
notes: also called S-E6 dimer; dimer S-E6
B3: the binding result in assay [1] and in assay [2] was “no binding” each time.
